Experimental findings from patent publication US20260258131A1 (ADAGENE PTE, published 2026) are described below.

In assay [1] the target is T1, biotinylated CTLA-4 protein (UniProt P16410 36-161, limits assumed, biotinylated (sites not given)).
T1 construct: also called receptor CTLA-4
T1 sequence (looked up): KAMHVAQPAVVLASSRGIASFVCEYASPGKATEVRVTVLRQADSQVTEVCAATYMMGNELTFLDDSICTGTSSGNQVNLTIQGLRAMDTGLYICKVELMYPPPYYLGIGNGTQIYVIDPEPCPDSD
The assay can be described thus: competition ELISA, biotinylated CTLA-4 on coated CD80 (competitor CD80). From the text: (§1) Relative CTLA-4 and its ligand binding was monitored by reading the absorbance at 450 nm wavelength in the micro-plate reader.

The target in assay [2] is T1, biotinylated CTLA-4 protein. The experiment in a line: competition ELISA, biotinylated CTLA-4 on coated CD86 (competitor CD86).
Source text: as §1
(In general: ELISA stands for enzyme-linked immunosorbent assay.)

The target in assay [3] is T2, recombinant human CTLA-4 protein (human, UniProt P16410 36-161, limits assumed).
T2 sequence (looked up): T1 sequence (looked up)
The experiment in a line: SPR (Biacore), antibody captured by anti-human IgG Fc, CTLA-4 in flow. As for the experimental part:
(§2) Serial dilutions of recombinant CTLA-4 proteins of different species origins were sequentially loaded and flowed through the chip to measure the kinetics of CTLA-4 antigen association (kₐ), followed by a buffer flow-through phase for dissociation kinetics (kd) measurement. The binding affinity (KD) is then calculated with […].

Assay [4] deals with T3, recombinant rat CTLA-4 protein (rat, UniProt Q62859 36-161).
T3 sequence: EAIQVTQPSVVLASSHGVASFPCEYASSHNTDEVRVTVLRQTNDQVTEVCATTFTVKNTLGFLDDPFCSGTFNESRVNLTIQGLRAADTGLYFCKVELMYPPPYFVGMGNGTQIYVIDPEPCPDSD
The assay is described as above. The method, then:
as §2

Assay [5] concerns the target T4, recombinant cynomolgus monkey CTLA-4 protein (cynomolgus monkey, UniProt G7PL88 36-161).
T4 sequence: T1 sequence (looked up) with S14N, I18T, L106M
The assay is described as above. The method, then:
as §2

The target of assay [6] is recombinant mouse CTLA-4 protein (mouse, UniProt P09793 36-161, limits assumed). The description is as above. The method, then:
as §2

Assay [7] deals with T5, Recombinant human CTLA4-hisFc (human, UniProt P16410 36-161, limits assumed).
T5 construct: Coated on the ELISA plate; the whole UniProt entry is named; also called recombinant human CLTA4-hisFc; its antigen; not shown: his tag and Fc
T5 sequence (looked up): T1 sequence (looked up)
The experiment in a line: ELISA, coated CTLA4-hisFc. As for the experimental part:
Plates were blocked with PBS supplemented with 3% non-fat milk at 37° C. for 1 hour. After washing, 100 µL of 3-fold serial dilutions of antibodies were added to each well. After incubation at 37° C. for 1 hour, plates were washed four times, and 100 μL HRP conjugated anti-human IgG (Fab specific) (1:6000 dilution) was added to each well. Plates were incubated at 37° C. for 1 hour, washed four times, and then 50 μL TMB substrate solution was added to each well, and the plate was incubated at room temperature. Absorbance at 450 nm was measured after the reactions were stopped with 50 μL H2SO4 per well. The EC50 was evaluated by fitting the ELISA data using the sigmoidal (four-parameter logistic equation) model of GraphPad Prism 6 software. Experiments for some activatable antibodies were performed twice or more, leading to two or more calculated masking efficiencies being obtained for each of these activatable antibodies.
The purified activatable antibodies were treated with the proteases which recognize the cleavage sequences, and were then tested to determine whether removal of the masking peptide restored their activity. […] The reactions were carried out at 37° C. for 24 hours. […] The masking efficiency was then measured by ELISA as described above.

The target of assay [8] is T6, human CTLA4 expressed on cells (human, UniProt P16410 36-223).
T6 sequence (looked up): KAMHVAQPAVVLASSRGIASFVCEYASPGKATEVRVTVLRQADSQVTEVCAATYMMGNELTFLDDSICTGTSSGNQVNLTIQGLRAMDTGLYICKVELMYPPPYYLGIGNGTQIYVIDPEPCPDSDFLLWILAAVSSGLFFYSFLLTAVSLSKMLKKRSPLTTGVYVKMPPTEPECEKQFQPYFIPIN
The assay can be described thus: cell-based or functional assay.

Changes are numbered by the printed parent chain.

B1: TY24652 (antibody, human IgG1, kappa)
heavy: not shown
light: ETLCEPFATSVCRPGGGPLGLAGGGSDIQLTQSPSSLSASVGDRVTITCRASQSVRGRFLAWYQQKPGKAPKLLIYDASNRATGIPSRFSGSGSGTDFTLTISSLQPEDFATYYCQQSSSWPPTFGQGTKVEIKRTVAAPSVFIFPPSDEQLKSGTASVVCLLNNFYPREAKVQWKVDNALQSGNSQESVTEQDSKDSTYSLSSTLTLSKADYEKHKVYACEVTHQGLSSPVTKSFNRGEC
notes: also called non-cleaved form TY24652
One may read the IC50 as the concentration needed to halve the response being measured. Usually Kd stands for the concentration at which binding is half-saturated. Regarding B1, the figures for the concentration for half-maximal inhibition (IC50) in assay [1] and in assay [2] were > 20 µM and > 4 µM, respectively. In addition, the Kd amounted to 32.5 nM in assay [3], 59.5 nM in assay [4], 32.3 nM in assay [5] and 49.4 nM in assay [6].

B2: TY21580 (antibody, human IgG1, V domains shown)
VH: EVQLVESGGGLVQPGGSLRLSCAASGYSISSGYHWSWIRQAPGKGLEWLARIDWDDDKYYSTSLKSRLTISRDNSKNTLYLQLNSLRAEDTAVYYCARSYVYFDYWGQGTLVTVSS
VL: DIQLTQSPSSLSASVGDRVTITCRASQSVRGRFLAWYQQKPGKAPKLLIYDASNRATGIPSRFSGSGSGTDFTLTISSLQPEDFATYYCQQSSSWPPTFGQGTKVEIKR
notes: also called parental antibody TY21580
As usually defined, the EC50 is the concentration at which the effect is half-maximal. As for B2, in assay [7], the concentration giving a half-maximal response (EC50) is 0.298 nM. Besides, in assay [8], the “ADCP reporter activity (luciferase), EC50” value came out at 5.6 nM. Besides, the figures for the Kd in assay [4], in assay [5] and in assay [6] were 0.78 nM, 0.37 nM and 0.5 nM, respectively.
